This passage reports FITC+ (gate frequency) and CAR+ (gate frequency) results from US20200377609A1.

Numbering of substitutions follows the chain as printed.

To fix the notation:
B1: Clone 9-1 (antibody, V domains shown)
VH: QQQLEESGGGLVKPGGTLTLTCTASGFSFSSGQWMCWVRQAPGKGLELIACIYTSAGGSTHYASWATGRFTISKTSSTTVTLQMTSLTAADTATYFCARDPYLLSAGPDNNLWGPGTLVAVSS
VL: ALVMTQTPSPVSAAVGGTVTINCQASQSIGSDFTWWQQKPGQPPKLLIYWASTLASGVSSRFKGSGSGTQFTLTISDLECDDAATYYCAGYVSYSDDGNAFGGGTEVVVK
B2: Clone 63-1 (antibody, V domains shown)
VH: QEQLEESGGDLVKPGASLTLTCTASGFSFSSGYWICWVRQAPGKGLEWIACIYTRSGGSTHYASWAKGRFTTSKTSSTTVTLQMTSLTAADMATYFCARDPYVLSAGPDNVLWGPGTLVTVSS
VL: ALVMTQTPSPVSAAVGGTVTINCQASESIGSDLGWYQQKPGQPPKFLIYWASTLVSGVPSRFEGSGSGTQFTLTISDLECDDAATYYCAGYESLSNDGNAFGGGTEVVVK
B3: Clone 154-7 (antibody, V domains shown)
VH: QSLEESGGDLVKPEGSLTLTCTASGFSFSSSYWICWVRQAPGKGLEWIACIYTANSGRTVYASWAKGRFTISKTSSTTVTLQLPSLTAADTATYFCARDIYVLTTTDNLWGPGTLVTVSS
VL: ALVMTQAPSPVSAAVGGTVTISCQASQPIGSDLVWYQQKPGQPPKLLIYYASDLASGVPSRFKGSGSGTRFTLTISGVECDDAATYYCAGYKNYDHDDCGFGGGTEVVVK
B4: Clone 9-9 (antibody, V domains shown)
VH: B1 VH with W34R
VL: B1 VL
B5: Clone 80-7 (antibody, V domains shown)
VH: B2 VH with G15E, A16G, G32A, A41V, R55G, S59R, T60S, T72I, M92T, V103I
VL: B2 VL with E27Q, Y36F, F46L, V55A
B6: Clone 18-4 (antibody, V domains shown)
VH: QERLVESGGGLVQPEGSLTLTCTASGLTLSNYWLCWVRQAPGKGLEWIACIYTGNYGSAYYANWVKGRFTISKASSTTVTLQMTSLTAADTATYFCARDPYTLTNVDVLWGPGTLVTVSS
VL: ALVMTQTPSPVSAAVGGTVTINCQASQSIGSDLAWYQQRPGQPPKLLIYWASTLASGVPSRFSGSGSGTQFTLTISDLECDDAATYYCTGYISYNDDNAAFGGGTEVVVK
B7: Clone 137-2 (antibody, V domains shown)
VH: QEQLVESGGGLVQPEGSLTLTCTASGFSFSLSNWICWVRQAPGKGLEWVACIYVSVSGNTRYASWAKGRFTISETSSTTVTLQMTGLTAADTATYFCARDPFSLVSVDRSLWGPGTLVTVSS
VL: ALVMTQTPSPVSAAVGGTVTINCQASQSIGSDLSWFQQKPGQPPKLLMYWASSLASGVPSRFKGSGSGTQFTLTISDLECDDAATYYCAGYVNYNNDDAAFGGGTEVVVK
B8: Clone 77-9 (antibody, V domains shown)
VH: QSLEESGGALVKPGASLALTCTASGFSFNLRHYMCWVRQAPGKGLEWIGCVHGGSSGGTYYASWTKGRFTISKTSSTTVTLQMTSLTAADTATYFCAREDDIMMAGEFSLWGPGTLVTVSS
VL: DIVMTQTPSSVEASVGGTVTIKCQASEDIESYLVWYQQKPGQPPKLLIYQASNLASGVPSRFYGSGSGTQFTLTISDLECADASTYYCQSYVEGGVDVVFGGGTEVVVK
B9: Clone 83-3 (antibody, V domains shown)
VH: B8 VH with A9D, A18T, G57S, T65A, A97T, S109G
VL: B8 VL with E12S, A13E, S14P, Y63S, Q70E, F71Y, S84A, V92I
B10: Clone 89-10 (antibody, V domains shown)
V domain 1: QEQLVESRGGLVKPGGSLTLTCKASGFSFSTGYYACWVRQAPGKGLELSACVDTGSGDTFYASWARGRFTISKTSSSTVTLQMTSLTVADTATYFCARTALVMTDFYFNLWGPGTLTTVSS
V domain 2: ALVMTQTPASVEAAVGGTVTINCQASQWISNELSWYQQKPGQPPKLLIYLASTLASGVPSRFKGSGSGTEFTLTISDLECADAATYYCQQGYNIGHLDNAFGGGTEVVVK

The target in the first assay is anti-BCMA CAR. Description: flow cytometry; supernatant on CAR-transduced Jurkat cells (panel BCMA WT), FITC goat anti-rabbit F(ab')2 detection.
B1 registered an FITC+ (gate frequency) of 75.2.

The next assay has as its target CAR-2. Description: flow cytometry; clonal supernatant on control CAR-2 T cells, FITC goat anti-rabbit F(ab')2 detection.
In turn, B2 displayed a CAR+ (gate frequency) of 0.1.
Still for that read-out and setting: with B3 the figure was 0.067; with B1, 0.18.
The same measure, in the same setting: the same measure for B4: 0.067; for B5: 0.22.
Still for that read-out and setting: the same measure for B6: 0.09; for B7: 0.11.

A further assay deals with CAR-3. Description: flow cytometry; clonal supernatant on control CAR-3 T cells, FITC goat anti-rabbit F(ab')2 detection.
B2 registered a CAR+ (gate frequency) of 0.14.
The molecule B3 gave a CAR+ (gate frequency) of 0.15.
In turn, B1 came in with a CAR+ (gate frequency) of 0.11.
B4 registered a CAR+ (gate frequency) of 0.13.
The same measure, in the same setting: with B5 the figure was 0.067.
B6 displayed a CAR+ (gate frequency) of 1.81.
On the same count and under the same terms, the same measure for B7: 0.093.

The target in the next assay is BCMA-AM1. The experiment in a line: flow cytometry; supernatant on CAR-transduced Jurkat cells (panel BCMA-AM1), FITC goat anti-rabbit F(ab')2 detection.
Molecule B1 gave an FITC+ (gate frequency) of 0.14.

The next assay concerns the target BCMA-AM2. Description: flow cytometry; supernatant on CAR-transduced Jurkat cells (panel BCMA-AM2), FITC goat anti-rabbit F(ab')2 detection.
On to B1, for which the FITC+ (gate frequency) turned out to be 95.3.

Another assay has as its target BCMA-AM1. Description: flow cytometry; supernatant on CAR-transduced Jurkat cells (BCMA-AM1), FITC goat anti-rabbit F(ab')2 detection.
In turn, B8 yielded an FITC+ (gate frequency) of 82.4.
Same read-out and setting: with B9 the figure was 83.4; with B10, 82.7.

The target in the next assay is anti-BCMA CAR. The experiment in a line: flow cytometry; clonal supernatant on anti-BCMA CAR T cells, FITC goat anti-rabbit F(ab')2 detection.
B2 yielded a CAR+ (gate frequency) of 58.2.
Same read-out and setting: with B3 the figure was 47.1.
On the same count and under the same terms, the same measure for B1: 60.9; for B4: 51.8; for B5: 31.5.
Same read-out and setting: the same measure for B6: 41.7; for B7: 42.4.

The target in the next assay is BCMA-AM2. Description: flow cytometry; supernatant on CAR-transduced Jurkat cells (BCMA-AM2), FITC goat anti-rabbit F(ab')2 detection.
Consider B8, for which the FITC+ (gate frequency) was 91.6.
Molecule B9 gave an FITC+ (gate frequency) of 90.2.
Still for that read-out and setting: the same measure for B10: 0.042.
